Laboratory results as given in the nanobody polyreactivity screen of Harvey et al. (2022).

Assay: yeast display, Sf9 membrane polyspecificity reagent, FACS + sequencing; frameworks hold sequencing errors
Procedure, shortened: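 Nanobodies from a synthetic yeast display library (Saccharomyces cerevisiae BJ5465), induced 36–48 hours with galactose, were stained 1 hour at 4 °C with 10% biotinylated, detergent-solubilized Sf9 membrane reagent, enriched on streptavidin microbeads, then FACS-sorted. Anti-HA (expression) and streptavidin (reagent binding) fluorescence set low and high (top ~1%) gates. Polyreactivity labels come from the gate of origin. Genes were colony-PCR amplified, MiSeq 2 × 250 sequenced and filtered by CDR length.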
In the case of “QVQLVESGGGLVHAGGSLRLSCAASGSIFAYYAMGWYRQAPGKERELVARITYSTDGTYYADSVKGRFTISRDNAKNTVYLQMNSLKPEDTAVYFCAVDTWWGFKRYKFDYWGQGTQVTVSS”, the “polyreactivity (PSR sort gate)” value is reported as “low polyreactivity”. With “QVQLVESGGGLVQAGGSLRLSCAASGSTIPYNTMGWYRQAPGKERELVAAISSSCRSTYYADSVKGRFTISRDNAKKTVYLQMNSLKPEDTAVYYCNAQIVASYQARRYYYWGQGTQVTVSS” the “polyreactivity (PSR sort gate)” value was “low polyreactivity”. In the case of “QVQLVESGGGLVQAGGSLRLSCAASGRILHIYAMGWYRQAPGKERELVAAISWIGTSTYYADSVKGRFTISRDNAMNTVFLQMNSLKPEDTAVYYCAATGPRMYYWGQGTQVTVSS”, the “polyreactivity (PSR sort gate)” value is reported as “high polyreactivity”. For “QVQLVESGGGLVQAGGSLRLSCAASGSIFDAYAMGWYRQAPGKERELVAAISLSDTSTYYADSVKGRFTISRDNAKNTVYLQMNSLKPEDTAVYYCAAEFYIAYIEYDYWGQGTQVTVSS”, the “polyreactivity (PSR sort gate)” value was “high polyreactivity”. For “QVQLVESGGGLVQAGGSLRLSCAASGFIFRGNAMGWYRQAPGKERELVAAISWSGGNTYYADSVKGRFTISRDNAKNTVYLQMNSLKPEDTAVYYCAAGATWSRQGSIRYNYWGQGTQVTVSS”, the “polyreactivity (PSR sort gate)” value was “high polyreactivity”. For “QVQLVESGGGIVQAGGSLRLSCAASGSTFETNAMGRDRQAPGKERELVAAIRWSTGNTYYADSVNGRFTISRDNAKNTVYLQMNSLITEDTAVYYCAAYKAKHYKDGYWGQGTQVSVSS”, the “polyreactivity (PSR sort gate)” value was “low polyreactivity”. For “QVQLVESGGGLVQAGGSLRLSCAASGRTFFVNAMGWYRQAPGKERELVAGITRTGGTTYYADSVKGRFTISRDNAKNTVYLQMNSLKPEDTAVYYCAATPGGTDLGGGYYGFDYWGQGTQVTVSS”, the “polyreactivity (PSR sort gate)” value was “low polyreactivity”. In the case of “QVQLVESGGGLVQAGGSLRLSCAASGRIFSIYAMGSYRQAPGKERELVAAISFRGTSTYADSVKGRFTISRDNAKNTVYLQMNSLKPEDTAVYYCAVTGFDFLWPSLGGELDYWGQGTQVTVSS”, the “polyreactivity (PSR sort gate)” value is reported as “low polyreactivity”. With “QVQLVESGGGLVQAGGSLRLSCAASGYIFRYYAMGWYRQAPGKERELVAAISWNGGRTYYADSVKGRFTISRDNAKNTVYLQMNSLKPEDTAVYYCAARYWGDYFTEMNYWGQGTQVTVSS” the “polyreactivity (PSR sort gate)” value was “high polyreactivity”. With “QVQLVESGGGLVQAGGSLRLICAASGSIFVGYAMGWCRQAPGKERELVAAIRSGGSTKYADSVKGRFTISRDNAKNTVYLQMNSLKPEDTAVYYCNVEVHPYYWVDNFHRFPVLHNYWGQGTQVTVSS” the “polyreactivity (PSR sort gate)” value was “low polyreactivity”. In the case of “QVQLVDSGGGLVQAGGSLSLSCAASGYTFDTNAMGWYRQAPGKERELVAAIDFSGGTTYADSVKGRFTISRDNAKNTVYLQMNSLKPEDTAVYYCSADHSGGSRYDYWGQGTQVTVSS”, the “polyreactivity (PSR sort gate)” value is reported as “low polyreactivity”. In the case of “QVQLVESGGGLVQAGGSLRLSCAASGLIFTPYAMGWYRQAPGKERELVAAINYGGSRTYYADSVKGRFTISRDNAKNTVYLQMNSLKPEDTAVYYCAARGFTLSYVDMYYWGLGTQVTVSS”, the “polyreactivity (PSR sort gate)” value is reported as “high polyreactivity”. For “QVQLVESGGGLVQAGGSLRLTCAASGRNFSQNAMGWYRQAPGKERELVAAISVTGGRTYYADSVKGRFTISRDNAKNTVYLQMNSLKPEDTAVYYCAKRTRSPGYYYWGQGTQVTVSS”, the “polyreactivity (PSR sort gate)” value was “high polyreactivity”. In the case of “QVQLVESGRGLVQAGGSLRLSCAASGNTFNVNAMVWYRQEPGKERELVAAITRSGGITYYADSVKGRFTISRDNAKNTVYLQLNSMKPEDTAVYYCAVEGFGYAYYYFYEYDYWGQGTQVTVSS”, the “polyreactivity (PSR sort gate)” value is reported as “high polyreactivity”. For “QVQLVESGVGLVQAGGSLRISCAASGRILGYYAMGWYRQAPGKEREMVAGISYSAGRTYYADSVKGRFTISRDNAKNTVYLQMNSLKPEDTAVYYCAKALVRSGSTRGTTGYYYWGQGTQVTVSS”, the “polyreactivity (PSR sort gate)” value was “high polyreactivity”. In the case of “QVQLVESGGGLVQAGGSLRLSCAASGLTLSYNAMGWYRQAPGKERELVAAIRSGGSTNYADSVKGRFTISRDNAKNTVYLQMNSLKPEDTAVYYCAARFRYLPYRYGRYQSGYEYWGQGTQVTVSS”, the “polyreactivity (PSR sort gate)” value is reported as “high polyreactivity”. With “QVQLVESGGGLVQAGGSLRLSCAASGIIFWQYAMGWYRQAPGKERELVAAISRSGGNTYYADSVKGRFTISRDNAKNTVYLQMNSLKPEDTAVYYCNARRYLRGYGYGYWGQGTQVTVSS” the “polyreactivity (PSR sort gate)” value was “high polyreactivity”. For “QVQLVESGGGLVQAGGSLRLSCAASGRTFESYAMGWYRQAPGKERELVAAITSTDDRTYYADSVKGRFTISRDNAKNTVYLQMNSLKPEDTAVYYCAVESRRDDFEYDYWGQGTQVTVSS”, the “polyreactivity (PSR sort gate)” value was “low polyreactivity”. For “QVQLVESGGGLVQAGGSLRLSCAASGSIVRRYAMGWYRQAPGKEREFVAAISKRGGGTYYADSVKGRFTISRDNAKNTVYLQMNSLKPEDTAVYYCAAPWRRIGYTTRGYTLYDYWGQGTQVTVSS”, the “polyreactivity (PSR sort gate)” value was “high polyreactivity”. With “QVQLVESGGGLVQAGGSLRLSCAASGRIFINNAMGWYRQAPGKEREFVAAITSGGRTYYADSVKGRFTISRDNAKNTVYLQMNSLKPEDTAVYYCAARYYRQYTRHYGYGYWGQGTQVTVSS” the “polyreactivity (PSR sort gate)” value was “high polyreactivity”. In the case of “QVQLVESGGGLVQAGGSLRFSCAASGSTFHRYVMGWYRQAPGKERELVADINSTGGSTYYADSVKGRFTISRDNAKNTVYLQMNSLKPEDTAVYYCARVTRRGPGFSTLYSRYDYWGQGTQVNVSS”, the “polyreactivity (PSR sort gate)” value is reported as “low polyreactivity”. In the case of “QVQLVESGGGLVQAGGSLRLSCAASGRTFSLYAMGWYRQAPGKERELVAGIDWSGGSTYYADSVKGRFTISRDNAKNTVYLQMNSLKPEDTAVYYCAAKYVWVSKASKDYDYWGQGTQVTVSS”, the “polyreactivity (PSR sort gate)” value is reported as “low polyreactivity”. With “QDQLVESGGGLVQAGGSLRLTCAASGGIFWSYAMGWYRQAPGKERDLVAAINWNAGSTYYADSVKGRFTISRDNAKNTVYLQMNSLKPEDTAVYYCAKVQWHLYDWGQGTQVTVSS” the “polyreactivity (PSR sort gate)” value was “high polyreactivity”. For “QDQLVESGGGLVQARGTLRLSCAASGRTFYQNAMGWYRHAPGKEREFVGAITGGTGSTHYADSVKGRFTISRDNAKNTVFLQMNSLKPEDTAVYYCATRYLLGFSRYDYCGQGTQVTVSS”, the “polyreactivity (PSR sort gate)” value was “low polyreactivity”. With “QVQLVESGGGLVKEGGSLRLSSAASGSTNRYYAMGLYRQAPGKERELVAGITTGGGRTYYADSEKGRFTISRDNAKYTVYLQMTSLKPEDTAVYYCAADRLSHYWYRISYDYWGQCTQVTVSS” the “polyreactivity (PSR sort gate)” value was “high polyreactivity”. For “QVQLLESGGGLVQAGGSLRISCASSVRISPRYAMGWYRQAPGKERELVAAIDTSDGTTYYADSVKGRFTISRDNAMKTVYFQMNSLKPEDTAVYYCAAEGQLFDLYDYWGHGTQVTVSS”, the “polyreactivity (PSR sort gate)” value was “low polyreactivity”. With “QVQRVESGGGLVQAGGSLRLSCAASGRTFFGYAMGWYRQAPGKERELVAAITSGGSTNYADSVKGRFTISRDNAKNTVYLQMNSLKPEDTAVYYCAASEDGSVSYESTYPEYDYWGQGTQVTVSS” the “polyreactivity (PSR sort gate)” value was “low polyreactivity”. For “QVQLVESGGGLVQAGGSLRLSCAASGLTLSYYAMGWYRQAPGKERELVATISWRTGSTYYADSVKGRFTISRDNAKNTVYLQMNSLKPEDTAVYYCNARGFQYSYSHLIYYPYDYWGQGTQVTVSS”, the “polyreactivity (PSR sort gate)” value was “high polyreactivity”. In the case of “QVQLVESGGGLDQAGGSLRLSCAASGITFDFNDLGWYRQAPGKERELVACINGNSDSTYYADSVKGRFTISRDIAKNTVFLQMNSLKPEDTAVYYCNVPTVRYRYDSWGQGTQVTVSS”, the “polyreactivity (PSR sort gate)” value is reported as “low polyreactivity”. With “QVQLVESAGGLVQAGGSLRLSCAASGRIFNSNAMGWYRQAPGKERELVASITSRGDSTFYADSVKGRFTISRDTAKNTVYLQMNSLKPEDTAVYYCAANGLYYRTPPVYSYDYWGQGTQVTVSS” the “polyreactivity (PSR sort gate)” value was “low polyreactivity”. For “QVQLVESGGGLVQAGGSLRLSCAASGFTFDRYAMGWYRQAPGKERELVAAISVSGGRTYYADSVKGRFTISRDNAKNTVYLQMNSLKPEDTAVYYCAARDHSRSRFGYDYLGQGTQVTVSS”, the “polyreactivity (PSR sort gate)” value was “high polyreactivity”. In the case of “QVQLVESGGGLVQAGGSLRLSCAASGRIFYSNAMGWYRQAPGKERELVATITYYADSVKGRFTISRDNAKNTVYLQMNSLKPEDTSVYYCAAVYLYYSRSDLYDYWGQGTQVTVSS”, the “polyreactivity (PSR sort gate)” value is reported as “low polyreactivity”. In the case of “QVQLVESGGGLVQAGGSIRLSCAASGRIFGRYAMGWYRQAPGKEMELVATITWRGGITYYADSVKGRFTISRDNAKNTVYLQLKRLKPEDNAVYYCAAGYGRIPYEYWGQGTQVTVSS”, the “polyreactivity (PSR sort gate)” value is reported as “high polyreactivity”. For “QVQLVESGGGLVQAGGSLRLSCAASGITFGANTMGWYRQAPGKERELVAAITISGGITHYADSVKGRFTISRDNAKNTVYLQMNSLKPEDTAVYYCAAGAYWRLYPYRQRNGGRMYYWGQGTQVTVSS”, the “polyreactivity (PSR sort gate)” value was “low polyreactivity”. With “QVKLVESGGGLVQAGGSLRFSCAASGSTFTKNARGWYRQAPGKERELVAGISRSGGNTYYADSVMGRFTISRDNSKNTVYLQLNRLKPEDTAVSYCAKVVRGIDSNLDDYWGQGTQVTVSS” the “polyreactivity (PSR sort gate)” value was “high polyreactivity”. For “QVQLVESGGGLVQAGGSLRLSCAASGFTFPYYAMGWYRQAPGKERELVAAITGRGGSTYYADSVKGRFTISRDNAKNTVYLQMNSLKPVDTAVFYCNAVRFAIHLADPYDYWGQGTQVTVSS”, the “polyreactivity (PSR sort gate)” value was “high polyreactivity”. In the case of “QVQLVESGGGLVQAGGSLRLSCAASGRILYSYAMGWYRQAPGKERELVASISWSGGSTYYADSVKGRFTISRDNAKNTVYLQMNSLKPEDTAVYYCAKKYYSVYQTDVSGRYDYWGQGTQVTVSS”, the “polyreactivity (PSR sort gate)” value is reported as “low polyreactivity”. In the case of “QVQLVESGGRLVQAGGSLRLSCAASGRTFGPYAIGRYRQAPGKERELVAAITDTGSGTYYADSVKGRFTISRDNAKNTVYLQMNSLKPEDTAVYYCNAVRKYWGQGTQVTVSS”, the “polyreactivity (PSR sort gate)” value is reported as “low polyreactivity”. In the case of “QVQLVESGGGLVQAGGSLRLSCAASGSTIGPYAMGWSRQAPGKERELVAAITISGDSTNYADSVKGRFTISRDNAKNTVYLQMLSLKPEDTAVYYCAAAYYWLQSWYDYWGQGTLVTVSS”, the “polyreactivity (PSR sort gate)” value is reported as “low polyreactivity”. In the case of “QVQLVESGGGLVQAGGSLRLSCAASGSIFFEYAMGWYRQAAGKERELVAAIDVGGGGTDYADSVKGRFTISRDNAKNTVYLQMNSLKPEDTAVYYCAAQDYYYFGIGASYDYWGQGTQVTVSS”, the “polyreactivity (PSR sort gate)” value is reported as “low polyreactivity”. In the case of “QVQLVESGGGLVQAGGSLRLSCAASGFTIWPYAMGWYRQPPGKERELVAGITRNGGSTYYADSVKGRFTISRDNAKNTVYLQMNSLKPEDTAVYYCNTKYAVEFDYWGQGTQVTVSS”, the “polyreactivity (PSR sort gate)” value is reported as “low polyreactivity”. With “QVQLVESGGGLVQAGGSLRLSCAASGSTFGINAMGWYRQAPGKERELVAVIRAGGGRTYYADSVKGRFTISRDNAKNTVYLQMNSLKPEDTAVYYCAARYYSRYVSVYASSKTGYDYWGQGTQVTVSS” the “polyreactivity (PSR sort gate)” value was “high polyreactivity”. In the case of “QVQLVESGGGLVQAGGSLRFSCAASGFTFSDYAMGWYRQAPGKEREFVAAITRRGGSTYYADSVKGRFTISRDNAKNTVYLQMNSLKPEDTAVYYCAKRGLRSYSFPLWQGYDYWGQGTQVTVSS”, the “polyreactivity (PSR sort gate)” value is reported as “high polyreactivity”.
